The values that follow come from patent publication US20170014503A1.

Test [1] deals with SP62-L669S (gp41 652-671)-GTH1 peptide anchored to liposomes (HIV-1). The test is described as follows: BIAcore SPR on liposome-anchored peptide; encounter-docking model A + B <-> AB (encounter) <-> ABx (docked); association of the encounter step. (In general: SPR reads the build-up and loss of mass on a sensor chip optically.)
The target of test [2] is SP62 (gp41 652-671)-GTH1 peptide anchored to liposomes (HIV-1). Described as above.
Test [3] addresses SP62-L669S (gp41 652-671)-GTH1 peptide anchored to liposomes (HIV-1). The test is described as follows: SPR, peptide anchored to phospholipid liposomes.
Test [4] concerns the target SP62 (gp41 652-671)-GTH1 peptide anchored to liposomes (HIV-1). As to the kind of experiment: SPR, peptide anchored to phospholipid liposomes.
For test [5], the target named is SP62-L669S (gp41 652-671)-GTH1 peptide anchored to liposomes (HIV-1). The test is described as follows: BIAcore SPR on liposome-anchored peptide; encounter-docking model; dissociation of the encounter step.
Test [6] deals with SP62 (gp41 652-671)-GTH1 peptide anchored to liposomes (HIV-1). The description is as above.
The target in test [7] is SP62-L669S (gp41 652-671)-GTH1 peptide anchored to liposomes (HIV-1). The test is described as follows: BIAcore SPR on liposome-anchored peptide; encounter-docking model; forward rate of the docking step.
In test [8] the target is SP62 (gp41 652-671)-GTH1 peptide anchored to liposomes (HIV-1). The description is as above.
Test [9] concerns the target SP62-L669S (gp41 652-671)-GTH1 peptide anchored to liposomes (HIV-1). As to the kind of experiment: BIAcore SPR on liposome-anchored peptide; encounter-docking model; reverse rate of the docking step.
The target in test [10] is SP62 (gp41 652-671)-GTH1 peptide anchored to liposomes (HIV-1). The description is as above.

Consider 2F5 mAb (antibody), for which the ka1 came out at 498000 M⁻¹ s⁻¹ in test [1] and 931000 M⁻¹ s⁻¹ in test [2]. The response unit (background subtracted) at 10 seconds after the injection was stopped in test [3] amounted to 617 RU. In test [4], the response unit at 10 seconds after the injection was stopped was determined as 495 RU. Besides, the figures for the kd1 in [5] and in [6] were 0.00119 s⁻¹ and 0.00692 s⁻¹, respectively. The substance further showed a reactivity value in column 'KYNU mut' with KYNU mut of 0.465. The substance further showed a reactivity value in column 'KYNU wt' with KYNU wt of 3.63. Moreover, the ka2 in test [7] was 0.0054 s⁻¹; in test [8] it was 0.0181 s⁻¹. Besides, the results for the kd2 in [9] and in test [10] were 2e-05 s⁻¹ and 0.00037 s⁻¹, respectively.
